Reference: publication PMC5105163

Target: HLA-DM, P28067;P28068
Assay: SPR
Details: parent DR1/CW trace is at 10 µM, parent: est. 0, read off a plot

Row | Substance | response (5 µM DR1-βG84PβE87P/CW analyte over immobilised DM) [RU] | response (10 µM DR1-βE87P/CW analyte over immobilised DM) [RU]
1 | HLA-DR1/CLIP_(102-120)M107W complex (from UniProt P04233) βG84P; βE87P | 270 | –
2 | HLA-DR1/CLIP_(102-120)M107W complex (from UniProt P04233) βE87P | – | 50
